Source: paper PMC10073093, “TGFBI remodels adipose metabolism by regulating the Notch-1 signaling pathway” (Experimental & Molecular Medicine, 2023)
Each block holds one binder with its values, some of them ahead of it.

Key:
[1] = target: T1, Recombinant Notch-1 protein (UniProt P46531 19-2555); test: ELISA
T1 chain: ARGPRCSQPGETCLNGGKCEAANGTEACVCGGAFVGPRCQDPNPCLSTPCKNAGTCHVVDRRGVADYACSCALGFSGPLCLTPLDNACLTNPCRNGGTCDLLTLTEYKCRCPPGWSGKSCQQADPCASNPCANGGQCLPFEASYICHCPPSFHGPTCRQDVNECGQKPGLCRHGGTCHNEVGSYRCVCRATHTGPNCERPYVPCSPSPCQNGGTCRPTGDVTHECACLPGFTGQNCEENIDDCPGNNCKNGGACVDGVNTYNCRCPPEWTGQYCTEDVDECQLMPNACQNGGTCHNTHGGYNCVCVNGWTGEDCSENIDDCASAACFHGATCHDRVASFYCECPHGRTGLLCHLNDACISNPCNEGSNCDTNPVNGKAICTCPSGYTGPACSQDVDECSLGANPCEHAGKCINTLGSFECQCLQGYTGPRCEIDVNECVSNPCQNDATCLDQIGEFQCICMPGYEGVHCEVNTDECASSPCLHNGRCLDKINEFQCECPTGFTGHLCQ

[2] = target: T2, Recombinant TGFBI (transforming growth factor-beta-induced protein) (UniProt Q15582 24-683); test: ELISA; recombinant Notch-1 (2 g/ml as printed, in PBS) coated on 96-well polystyrene plates at RT overnight; blocked with 1% BSA in PBS; Jagged-1 or TGFBI added at 0 to 2000 ng/ml; biotinylated antibodies, streptavidin-HRP, OD 450 nm; Kd (nM) = ED50 (ng/mL)/molecular weight of binding protein; conditions: both partners purified
T2 construct: Transforming growth factor-beta-induced protein (TGFBI, βig-H3); cDNA inserted into the EcoRV and EcoRI sites of pET-29b; also called βig-H3; keratoepithelin; source: E. coli, IPTG-induced, purified (Ni-NTA column, dialyzed)
T2 sequence (looked up): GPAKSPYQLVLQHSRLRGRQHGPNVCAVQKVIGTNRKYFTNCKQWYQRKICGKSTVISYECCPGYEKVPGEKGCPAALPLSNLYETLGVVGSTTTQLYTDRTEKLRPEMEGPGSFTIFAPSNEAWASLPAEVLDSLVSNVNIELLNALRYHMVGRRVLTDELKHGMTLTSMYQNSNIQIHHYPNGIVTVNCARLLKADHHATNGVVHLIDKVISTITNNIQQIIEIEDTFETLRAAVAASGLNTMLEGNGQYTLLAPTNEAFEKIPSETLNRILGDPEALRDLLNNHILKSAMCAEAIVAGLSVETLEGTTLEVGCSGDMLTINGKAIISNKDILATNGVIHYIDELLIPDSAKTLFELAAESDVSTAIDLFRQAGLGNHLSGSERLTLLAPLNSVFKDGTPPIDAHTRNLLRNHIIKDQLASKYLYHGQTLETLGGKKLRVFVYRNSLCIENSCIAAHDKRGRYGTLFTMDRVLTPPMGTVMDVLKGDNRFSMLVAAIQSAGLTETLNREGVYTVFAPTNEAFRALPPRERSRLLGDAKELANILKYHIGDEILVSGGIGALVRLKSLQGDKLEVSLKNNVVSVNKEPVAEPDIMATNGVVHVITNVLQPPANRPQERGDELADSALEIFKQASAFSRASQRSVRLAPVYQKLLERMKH

EC50 [1]: 0.452 µg/mL
B1: Recombinant TGFBI (transforming growth factor-beta-induced protein) (natural protein)
chain: T2 sequence (looked up)
modifications: Species, supplier and limits not stated. Human assumed (mouse Q01705 is possible). Limits follow the usual commercial recombinant Notch-1 ectodomain fragment (N-terminal EGF repeats including ligand-binding EGF 11-12), recalled rather than printed; any Fc carrier omitted.

Kd [2]: 3.18 nM
B2: Recombinant Notch-1 protein (receptor)
chain: T1 chain
modifications: Species, supplier and limits not stated. Human assumed (mouse Q01705 is possible). Limits follow the usual commercial recombinant Notch-1 ectodomain fragment (N-terminal EGF repeats including …)
